In the test the target is Syk kinase (endogenous, in cell lysates) (not stated (endogenous in murine NMuMG cells and in Bal-17 B cells)) (UniProt P48025). In words: co-immunoprecipitation in the presence of tyrosine phosphatase inhibitors, NMuMG lysates, three independent experiments.

A value given as a limit tells only on which side of the number the result lay.

Sequence of Syk kinase (endogenous, in cell lysates) (not stated (endogenous in murine NMuMG cells and in Bal-17 B cells)) (P48025 whole entry): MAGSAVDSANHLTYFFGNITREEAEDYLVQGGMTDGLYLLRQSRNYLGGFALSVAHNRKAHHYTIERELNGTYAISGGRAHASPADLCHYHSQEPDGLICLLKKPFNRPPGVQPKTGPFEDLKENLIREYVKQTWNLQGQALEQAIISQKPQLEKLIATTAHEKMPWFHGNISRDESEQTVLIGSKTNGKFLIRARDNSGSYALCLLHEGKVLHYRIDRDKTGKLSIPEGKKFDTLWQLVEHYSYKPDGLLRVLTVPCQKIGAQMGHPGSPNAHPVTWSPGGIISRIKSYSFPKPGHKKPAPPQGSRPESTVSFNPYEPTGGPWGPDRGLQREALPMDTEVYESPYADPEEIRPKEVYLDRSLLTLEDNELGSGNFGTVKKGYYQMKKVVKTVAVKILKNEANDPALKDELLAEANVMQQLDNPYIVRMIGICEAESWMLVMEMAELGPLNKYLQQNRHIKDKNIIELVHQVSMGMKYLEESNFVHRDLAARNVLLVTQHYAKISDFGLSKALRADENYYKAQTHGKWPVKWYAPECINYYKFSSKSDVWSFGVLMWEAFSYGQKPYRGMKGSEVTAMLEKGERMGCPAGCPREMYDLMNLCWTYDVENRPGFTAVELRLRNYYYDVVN

Consider “MMTV Env surface unit (SU or gp52), unmutated envelope (from UniProt P03374 99-454)”, for which the percent of SU co-immunoprecipitated with Syk was < 34%.

Values taken from US20070110760A1.
